Assay results published in patent US10538591B2, “Anti-fibulin-3 antibodies and uses thereof” (THE BRIGHAM AND WOMEN'S HOSPITAL, INC., priority 2014, dated 2020).
Entries after “also recorded” stand apart in the source; their conditions may differ.

What was measured:
[1] = tested on: GBM34 glioblastoma stem cells; assay: BrdU uptake in tumors after intravenous treatment; format: in vivo, mice; conditions: 8×30 mg/kg IV, BrdU 1 h before euthanasia
Description: Control and tumor mice studied in FIG. 11 for overall survival (treated with antibody 8×30 mg/kg, IV) were injected with 5-bromo-2′-deoxyuridine (BrdU, 50 mg/kg, IP) 1 h before euthanasia. BrdU staining of actively dividing cells. Tumors from 3 mice per group were processed for immunohistochemistry to detect BrdU uptake, corresponding to actively dividing cells. Tissue sections were imaged by fluorescence microscopy and quantified blindly using ImageJ image analysis software. DAPI was used to stain cell nuclei. Results were expressed as number of BrdU-positive cells per unit of tumor area. […] (Data not shown).

[2] = tested on: normal adult human brain; assay: Immunohistochemistry of normal adult human brain sections; conditions: anti-Fib3/911 10 μg/ml, mAb428.3C11 40 μg/ml, mAb3-5 5 μg/ml
Description: (§1) Frozen sections of human primary glioblastoma and normal adult human brain were fixed in ethanol/acetate buffer and processed for immunohistochemistry with the following anti-fibulin-3 antibodies: rabbit polyclonal anti-Fib3/911 (10 μg/ml), mouse monoclonal anti-fibulin-3 mAb428.3C11 (40 μg/ml), and a commercial mouse monoclonal antibody against human fibulin-3 (mAb3-5, 5 μg/ml, Santa Cruz Biotechnology). […] Both in-house generated antibodies show stronger staining in the tumor parenchyma compared to the commercial antibody. In all cases, staining is particularly intense around tumor blood vessels. […] Sections were counterstained to identify endothelial markers and cell nuclei by staining with anti-CD31 and DAPI respectively. (Data not shown).

[3] = molecular target: T1, fibulin-3 in human primary glioblastoma (Homo sapiens, UniProt Q12805); assay: Immunohistochemistry of human primary glioblastoma sections; conditions: anti-Fib3/911 10 μg/ml, mAb428.3C11 40 μg/ml, mAb3-5 5 μg/ml
T1 construct: specificity of mAb428.3C11 to detect native fibulin-3 in tumor tissue; from tissue; host or cells: frozen sections of human primary glioblastoma
T1 sequence (Q12805 18-493): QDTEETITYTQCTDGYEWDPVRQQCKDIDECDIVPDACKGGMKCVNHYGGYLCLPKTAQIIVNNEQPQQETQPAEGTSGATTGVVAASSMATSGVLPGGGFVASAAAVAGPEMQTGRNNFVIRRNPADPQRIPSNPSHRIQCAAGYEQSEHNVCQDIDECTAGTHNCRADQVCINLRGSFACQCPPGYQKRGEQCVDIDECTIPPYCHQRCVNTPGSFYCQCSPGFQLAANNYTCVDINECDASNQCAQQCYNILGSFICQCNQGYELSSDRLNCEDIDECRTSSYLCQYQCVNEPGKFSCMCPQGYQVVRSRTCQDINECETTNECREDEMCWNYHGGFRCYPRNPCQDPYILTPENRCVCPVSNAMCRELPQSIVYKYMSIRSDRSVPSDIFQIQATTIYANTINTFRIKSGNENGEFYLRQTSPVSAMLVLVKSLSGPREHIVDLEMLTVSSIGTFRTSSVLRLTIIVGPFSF
Description: as §1
Specific and striking fibrillar staining patterns of fibulin-3 were observed around tumor blood vessels (magnification: 40×). […] Endothelial cells were stained with anti-CD31 and cell nuclei with the dye DAPI. (Data not shown).

[4] = tested on: GBM34 glioblastoma stem cells; assay: Intravenous injection in subcutaneous GBM34 xenografts, growth and overall survival; format: in vivo, Athymic mice
Description: Athymic mice received SQ bilateral implants of GBM34 glioblastoma stem cells (1×10^6 cells/50 μl). Tumors were allowed to grow until they reached a volume of 100 mm^3. Animals (N=5/group) were then injected with mAb428.2 (30 mg/kg) or non-immune mouse IgG1 every day, for a total of 8 days (total: 8 injections). Mice were monitored for tumor growth and sacrificed when any of their tumors reached a length >=20 mm. Long-term survivors (>40 days) in which length was not increasing above 20 mm were euthanized when tumors reached width >=15 mm or presented ulcerations. […] Curves for overall survival were compared by long-rank test

[5] = tested on: Notch signaling induced by fibulin-3; assay: Notch reporter in ARPE19 retinal pigmented epithelial cells; format: cell-based, human; conditions: 100 μg/ml, 0, 2, 4, 6 and 24 h
Description: Cells were co-transfected with plasmids carrying fibulin-3 cDNA (Fib3 OE) or a control cDNA (Control) and incubated in serum-free conditions for 24 h (FIG. 18). The following day mAb428.3C11 (100 μg/ml) was added to the cultures and Notch (left panel) or NF-kB (right panel) signaling activities were measured after 0, 2, 4, 6, and 24 h. […] The inhibitory effect caused by the antibody on control reporter signaling (black dots) may have been caused by blocking of endogenous fibulin-3 that is highly expressed by ARPE19 cells.

B1: mAb428.2: mouse monoclonal IgG1 kappa antibody against human fibulin-3 peptide SEQ ID NO:2; VH SEQ ID NO: 3, VL SEQ ID NO: 4 (antibody, V domains shown)
VH: QIQLVQSGPELKKPGETVKISCKASGYSFTTYGMSWVKQAPGKGLKWMGWINTYSGVPTYADDFKGRFAFFLETSASTAYLQINNLKNEDTATYFCARWVDYWGQGTTLTVSS
VL: DIKMTQSPSSMYASLGERVTITCKASQDIKSYLSWHQQKPWKSPKTLIYYATSLADGVPSRFSGSGSGQDYSLTISSLESDDTATYYCLQHGKSPYTFGGGTKLEIK
[1]
  tumor cell division (BrdU-positive cells per unit of tumor area): significant decrease in tumor cell division
[2]
  staining in normal brain: without cross-reactivity against normal brain
[2]; listed as mAb428.3C11
  staining in normal brain: complete absence of staining in normal tissue
[3]
  fibulin-3 staining in glioblastoma tissue: detected fibulin-3 in the stroma and capillaries of human GBM
[3]; listed as mAb428.3C11
  fibulin-3 staining in glioblastoma tissue: Specific staining of fibulin-3 in tumor tissue; also recorded: detected the same fibrillar pattern observed with a commercial anti-fibulin-3 antibody
[4]; 30 mg/kg IV every day, 8 injections
  overall survival compared to control IgG1: extended overall survival two-fold; also recorded: significant prolongation of overall survival
[4]; IV 8×30 mg/kg
  tumor growth: significant delay in tumor growth
[5]
  effect on fibulin-3-induced Notch reporter activity: strong blocking effect
